B2: CD19-Fc (Fc fusion, UniProt P15391 20-291, looked up)
chain: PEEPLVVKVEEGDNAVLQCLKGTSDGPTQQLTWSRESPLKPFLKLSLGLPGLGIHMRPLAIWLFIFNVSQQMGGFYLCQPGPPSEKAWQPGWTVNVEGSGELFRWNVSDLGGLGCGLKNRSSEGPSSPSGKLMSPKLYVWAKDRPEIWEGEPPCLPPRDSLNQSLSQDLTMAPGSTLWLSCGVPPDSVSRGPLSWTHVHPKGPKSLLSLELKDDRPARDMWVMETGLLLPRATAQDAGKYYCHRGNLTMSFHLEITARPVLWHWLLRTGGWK
notes: The words recombinant human Fc-fusions leave open whether human means the Fc or the antigen; also called recombinant human Fc-fusion of CD19 antigen; Fc-conjugated soluble CD19; not shown: human Fc

Legend:
[1] = target: T1, GFRα4 isoform b (GFRα4b), Fc fusion (human); test: flow cytometry of CAR T cells stained with Fc-fusion antigen and anti-human Fc-specific antibodies (FIG. 19C)
T1 construct: the entry holds the whole fusion; also called GFR4α4b; GFRα4-Fc
Experimental: (§1) To create CAR-T expressing cells, human T cells from healthy donors were activated with anti-CD3 and anti-CD28 coated paramagnetic beads (DYNABEADS® Human T-Activator CD3/CD28, Life Technologies). One day following activation, cells were transduced with lentiviral vectors encoding GFRα4-directed CARs (original rabbit P4-10 and humanized versions), a CD19-directed control CAR (FMC63(cd8)bbz), or were left non-transduced (NTD). Cells were expanded and on day 7, cells were evaluated for cell-surface expression of the CARs by flow cytometry (FACSCalibur, BD Biosciences, Franklin Lakes, N.J.). Fluorescently-labeled goat anti-rabbit antibodies detected CAR P4-10, the original rabbit GFRα4-directed CAR, and fluorescently-labeled Protein L detected the murine CD19-directed CAR (FIG. 19A, “P410” and “19bbz”, respectively). Fluorescently-labeled rabbit anti-human antibodies (“RaH”) detected CARs 10, 14, 25, and 29 (FIG. 19B). Expression of cell-surface CARs were also detected by staining with antigen using recombinant human Fc-fusions of GFRα4 or CD19 antigen followed by detection of bound antigen with fluorescently-labeled anti-human Fc-specific antibodies (FIG. 19C). Appropriately, CD19-Fc only bound to CD19-directed CARs while GFRα4-Fc bound to both rabbit P4-10 and humanized P4-10 CARs but not the CD19-directed CAR.

CD19-Fc = target: B2; test: flow cytometry of CAR T cells stained with Fc-fusion antigen and anti-human Fc-specific antibodies
Experimental: as §1

CAR-29 = target: T2, CAR-29 (human, UniProt P01732 183-206; Q07011 214-255; P20963 52-163); test: as above
T2 construct: domain: transmembrane domain;domain: 4-1BB domain;domain: CD3zeta domain; Chimeric antigen receptor on transduced human T cells; also called pTRPE-C29-gs-BBz
T2 sequence (P01732 other isoform, or with tags, fused parts or gaps limits assumed): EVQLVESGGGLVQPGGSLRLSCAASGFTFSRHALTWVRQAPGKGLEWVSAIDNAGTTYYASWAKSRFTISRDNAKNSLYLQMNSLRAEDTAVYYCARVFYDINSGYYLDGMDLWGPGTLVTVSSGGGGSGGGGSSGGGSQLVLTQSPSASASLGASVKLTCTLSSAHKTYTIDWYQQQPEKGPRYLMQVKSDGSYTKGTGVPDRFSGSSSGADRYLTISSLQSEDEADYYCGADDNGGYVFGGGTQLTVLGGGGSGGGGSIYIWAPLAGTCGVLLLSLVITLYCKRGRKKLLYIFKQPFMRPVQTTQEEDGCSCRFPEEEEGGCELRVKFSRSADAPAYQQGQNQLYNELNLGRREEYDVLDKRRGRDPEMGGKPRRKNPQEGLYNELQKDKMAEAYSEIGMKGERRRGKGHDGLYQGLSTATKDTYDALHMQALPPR
Experimental: as §1

CAR-14 = target: T3, CAR-14 (human, UniProt P01732 183-206; Q07011 214-255; P20963 52-163); test: as above
T3 construct: domain: transmembrane domain;domain: 4-1BB domain;domain: CD3zeta domain; Chimeric antigen receptor on transduced human T cells; also called pTRPE-C14-gs-BBz
T3 sequence (P01732 other isoform, or with tags, fused parts or gaps limits assumed): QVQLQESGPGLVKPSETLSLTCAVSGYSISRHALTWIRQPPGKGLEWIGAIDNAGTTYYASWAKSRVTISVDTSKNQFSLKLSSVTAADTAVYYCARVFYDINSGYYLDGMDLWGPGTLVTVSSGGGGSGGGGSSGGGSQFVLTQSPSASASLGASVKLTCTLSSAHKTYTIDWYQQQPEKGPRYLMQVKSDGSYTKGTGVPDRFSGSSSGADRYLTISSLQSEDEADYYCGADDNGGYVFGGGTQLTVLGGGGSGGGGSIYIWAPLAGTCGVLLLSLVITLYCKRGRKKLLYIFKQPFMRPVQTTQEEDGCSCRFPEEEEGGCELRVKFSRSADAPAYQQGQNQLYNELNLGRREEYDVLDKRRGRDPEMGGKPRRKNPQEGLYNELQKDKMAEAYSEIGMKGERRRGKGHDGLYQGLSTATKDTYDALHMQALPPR
Experimental: as §1

CAR-25 = target: T4, CAR-25 (human, UniProt P01732 183-206; Q07011 214-255; P20963 52-163); test: as above
T4 construct: domain: transmembrane domain;domain: 4-1BB domain;domain: CD3zeta domain; Chimeric antigen receptor on transduced human T cells; also called pTRPE-C25-gs-BBz
T4 sequence (P01732 other isoform, or with tags, fused parts or gaps limits assumed): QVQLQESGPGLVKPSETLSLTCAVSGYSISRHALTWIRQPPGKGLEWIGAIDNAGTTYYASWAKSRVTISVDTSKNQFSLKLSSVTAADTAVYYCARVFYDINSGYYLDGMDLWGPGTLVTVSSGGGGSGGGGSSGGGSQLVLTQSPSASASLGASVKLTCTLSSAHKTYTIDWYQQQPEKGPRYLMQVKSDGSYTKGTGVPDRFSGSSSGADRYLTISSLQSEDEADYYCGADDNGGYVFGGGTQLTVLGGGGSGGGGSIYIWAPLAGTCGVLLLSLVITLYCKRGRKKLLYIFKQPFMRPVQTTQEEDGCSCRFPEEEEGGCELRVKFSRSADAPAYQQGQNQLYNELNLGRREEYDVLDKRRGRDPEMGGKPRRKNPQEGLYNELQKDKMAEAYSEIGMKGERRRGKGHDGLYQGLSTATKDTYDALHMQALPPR
Experimental: as §1

CAR-10 = target: T5, CAR-10 (human, UniProt P01732 183-206; Q07011 214-255; P20963 52-163); test: as above
T5 construct: domain: transmembrane domain;domain: 4-1BB domain;domain: CD3zeta domain; Chimeric antigen receptor on transduced human T cells; also called CAR10bbz; pTRPE-C10-gs-BBz
T5 sequence (P01732 other isoform, or with tags, fused parts or gaps limits assumed): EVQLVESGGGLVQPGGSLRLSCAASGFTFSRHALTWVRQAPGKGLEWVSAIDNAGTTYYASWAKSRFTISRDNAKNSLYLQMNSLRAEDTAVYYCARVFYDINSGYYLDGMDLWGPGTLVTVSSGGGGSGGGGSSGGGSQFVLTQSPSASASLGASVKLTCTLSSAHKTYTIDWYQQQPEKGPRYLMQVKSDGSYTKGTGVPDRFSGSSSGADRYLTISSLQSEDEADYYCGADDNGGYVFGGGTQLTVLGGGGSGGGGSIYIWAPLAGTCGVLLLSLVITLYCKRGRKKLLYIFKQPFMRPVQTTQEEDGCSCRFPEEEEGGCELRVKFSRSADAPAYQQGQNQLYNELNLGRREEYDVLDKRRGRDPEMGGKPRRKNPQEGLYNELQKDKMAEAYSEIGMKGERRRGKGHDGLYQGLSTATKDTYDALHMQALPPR
Experimental: as §1

B1: CAR P4-10, the original rabbit GFRα4-directed CAR (other)
VH: QSVKESEGGLFKPTDTLTLTCTVSGFSLSRHALTWVRQAPGNGLEWIGAIDNAGTTYYASWAKSRSTITRNTDLHTVTLKMTSLTASDTATYFCARVFYDINSGYYLDGMDLWGPGTLVTVSS
VL: QFVLTQSPSVSAALGASAKLTCTLSSAHKTYTIDWYQQQQGEAPRYLMQVKSDGSYTKGTGVPDRFSGSSSGADRYLIIPSVQADDEAGYVCGADDNGGYVFGGGTQLTVT
notes: Chimeric antigen receptor on transduced human T cells, one chain in fact; also called P410bbz; P4-10 CAR
**Q.** Does B1 bind [1]?
**A.** binds

**Q.** Does B1 bind (CD19-Fc)?
**A.** no binding

**Q.** Does B2 bind (CAR-29)?
**A.** no binding

**Q.** Does B2 bind (CAR-14)?
**A.** no binding

**Q.** Does B2 bind (CAR-25)?
**A.** no binding

**Q.** Does B2 bind (CAR-10)?
**A.** no binding

Source: patent US20210095036A1 (University of Pennsylvania, published 2021)
